{
  "source": "patent US10800847",
  "key": {"[1]": {"biological_target": "HLA-A*6802 (A68) single antigen on Luminex beads (human)", "test": "Luminex single antigen bead assay, iBeads vs regular beads, IVIg 1:4"}, "[2]": {"biological_target": "HLA-A*6901 (A69) single antigen on Luminex beads (human)", "test": "Luminex single antigen bead assay, iBeads vs regular beads, IVIg 1:4"}, "[3]": {"biological_target": "HLA-A*8001 (A80) single antigen on Luminex beads (human)", "test": "Luminex single antigen bead assay, iBeads vs regular beads, IVIg 1:4"}, "[4]": {"biological_target": "HLA-Cw*1203 (Cw12) (human)", "test": "Luminex, regular beads (#7), 1:4"}, "[5]": {"biological_target": "HLA-Cw*1402 (Cw14) (human)", "test": "Luminex, regular beads (#7), 1:4"}, "[6]": {"biological_target": "HLA-Cw*0202 (Cw2) (human)", "test": "Luminex, regular beads (#7), 1:4"}, "HLA-B*8201 (B82) (human)": {"biological_target": "HLA-B*8201 (B82) (human)", "test": "Luminex, regular beads (#7), 1:4"}, "[7]": {"biological_target": "HLA-Cw*1802 (Cw18) (human)", "test": "Luminex, regular beads (#7), 1:4"}, "[8]": {"biological_target": "HLA-Cw*0303 (Cw9) (human)", "test": "Luminex, regular beads (#7), 1:4"}, "[9]": {"biological_target": "HLA-Cw*0602 (Cw6) (human)", "test": "Luminex, regular beads (#7), 1:4"}},
  "data": [
    {"substance": "IVIg Sandoglobulin (Novartis, Basel, Switzerland) (antibody)", "values": [
      {"measurement": "Difference % (iBead MFI against regular bead MFI)", "setting": "[1]", "value": 31, "unit": "%"},
      {"measurement": "Difference % (iBead MFI against regular bead MFI)", "setting": "[2]", "value": 68, "unit": "%"},
      {"measurement": "Difference % (iBead MFI against regular bead MFI)", "setting": "[3]", "value": 41, "unit": "%"},
      {"measurement": "MFI", "setting": "[4]", "value": 985, "unit": "MFI"},
      {"measurement": "MFI", "setting": "[5]", "value": 991, "unit": "MFI"},
      {"measurement": "MFI", "setting": "[6]", "value": 1280, "unit": "MFI"},
      {"measurement": "MFI", "setting": "HLA-B*8201 (B82) (human)", "value": 639, "unit": "MFI"},
      {"measurement": "MFI", "setting": "[7]", "value": 1550, "unit": "MFI"},
      {"measurement": "MFI", "setting": "[8]", "value": 703, "unit": "MFI"},
      {"measurement": "MFI", "setting": "[9]", "value": 1560, "unit": "MFI"}
    ]}
  ]
}
